Measured values: patent US20110263451A1, “BIOLOGICAL MARKERS PREDICTIVE OF RHEUMATOID ARTHRITIS RESPONSE TO LYMPHOTOXIN ANTAGONISTS” (GENENTECH, INC, priority 2008, published 2011)

Key:
[1] = tested on: solLTαβ; assay: solLTαβ levels in serum of CIA mice (murine LTαβ ECLA); assay type: in vivo, mouse (DBA-1J); settings: 6 mg/kg s.c. three times weekly, treated for 11 days, FIG. 4A
Protocol: (§1) Soluble mouse LTαβ was measured using streptavidin coated 96-Well Microtiter plates (Meso Scale Discovery). Wells were then blocked with 150 uL of PBS containing 5% bovine serum albumin for 1-2 hours. Twenty-five uL per well of 1 μg/ml murine LTβR-Fc-biotin (R&D Systems) diluted in PBS/0.05% Tween® was then incubated with the blocked plate for 30 minutes. The wells were washed 6× with PBS containing 0.05% Tween®-20 (PBS/Tween®) and a titration curve of recombinant mouse LTα1β2 (R&D Systems), controls and unknown test samples diluted in high salt assay diluent (PBS, 0.5% BSA, 0.05% Tween® 20, 10 ppm Proclin, 5 mM EDTA, 0.2% BGG, 0.25% CHAPS+3.5 mM NaCl pH 7.4) were added at 25 μl/well and incubated for 2 hours. The wells were washed 6× with PBS/Tween® and an anti-LTα monoclonal antibody (N3EV) (Genentech) labeled with SULFO-TAG® NHS (Meso Scale Discovery) was diluted to 3 ug/ml in assay diluent and added to the wells at 25 μl/well for 1 hour. The plate was washed with wash buffer 6× and 150 μl/well of Read Buffer T (Meso Scale Discovery) diluted 1:2 in H20 was added to the plate. The plate was immediately read on an MA6000 SECTOR™ Imager (Meso Scale Discovery). A weighted 4-parameter fit curve was plotted using XLFit (Guildford, UK) from the resulting standard curve values and unknown concentrations were extrapolated. […]

[2] = tested on: solLTαβ; assay: solLTαβ levels in serum of EAE mice (murine LTαβ ECLA); assay type: in vivo, mouse (SJL/J); settings: 6 mg/kg s.c. three times a week, FIG. 3
Protocol: as §1, with “The wells were washed 6× with PBS/Tween® and an anti-LTα monoclonal antibody (N3EV) (Genentech) labeled with SULFO-TAG® NHS (Meso Scale Discovery) was diluted to 3 ug/ml in assay diluent and added to the wells at 25 μl/well for 1 hour.” left out, “Discovery).” for “Discovery). A weighted 4-parameter fit curve was plotted using XLFit (Guildford, UK) from the resulting standard curve values and unknown concentrations were extrapolated.”
Female SJL/J mice were immunized intradermally at the base of the tail with 200 μl of emulsion containing 150 μg of peptide PLP 139-151 in 100 μl of PBS and 100 μl of CFA. […] Animals were evaluated daily for clinical signs using the same grading system as for the transgenic mice.

B1: muLTβR-Fc: recombinant murine LTβ receptor conjugated to an immunoglobulin Fc region (murine IgG2a Fc) (protein)
chain: QLVPPYRIENQTCWDQDKEYYEPMHDVCCSRCPPGEFVFAVCSRSQDTVCKTCPHNSYNEHWNHLSTCQLCRPCDIVLGFEEVAPCTSDRKAECRCQPGMSCVYLDNECVHCEEERLVLCQPGTEAEVTDEIMDTDVNCVPCKPGHFQNTSSPRARCQPHTRCEIQGLVEAAPGTSYSDTICKNPPEPGAML
modifications: left off: a dimerising Fc or GST
[1]
  solLTαβ levels in serum: Elevated
[2]
  solLTαβ levels in serum: Elevated
